Data published in paper PMC6602974 (2019).

B1: CH505 transmitted founder gp120 (domain or fragment)
chain: not shown
B2: DH753 monoclonal antibody (IgG1) (antibody, V domains shown)
VH: EVHLVESGGGLVQPGGSLRLSCEVSGLTFSNSWMSWVRQAPGKGLEWVGFIKTKADGGTAAYAESVKGRFTISRDDSKNTVFLQMKSLKTEDTAVYYCQGAVVISHEYIEIWGQGALVTVSS
VL: QSVLTQPPSASEAARKSVTISCSGGSSNIGDDSVSWYQQVPGTAPKLLIYYNDRRASGVSDRFSGSKSGTSASLAINGLQSEDEADYYCAAWDDSLSAYIFGSGTRLTVL
B3: DH727.2 monoclonal antibody (IgG1) (antibody, V domains shown)
VH: QVQLVQSGAEVKKPGASVKLSCKASGNTFSIYGISWVRQAPGQGLEWMGGIIPPAGLTNYVQRFQGRVTITADTSTTTVYMELSSLTSEDTAVYYCAIRIGRGFDYWGQGVLVTVSS
VL: DIVMTQSPLSLPVTPGETASISCRSSQSLLDSEDGNTYLEWYLQKPGQSPQALIYEASNRASGVPDRFSGSGSDTDFTLKISRVEAEDVGIYYCMQTIEYPFTFGPGTKVDIK

Columns and labels:
DH796.1 = assay: SPR
[1] = molecular target: B1; assay: SPR

B1
Kd (DH796.1): 0.253 µM

B2
Kd [1]: 0.0012 µM

B3
Kd [1]: 0.0109 µM
